Results taken from the nanobody polyreactivity screen of Harvey et al. (2022).

Assay: yeast display, Sf9 membrane polyspecificity reagent, FACS + sequencing; frameworks hold sequencing errors
Summary of the method: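 Synthetic nanobody libraries on Saccharomyces cerevisiae BJ5465 were galactose-induced for 36–48 hours, stained 1 hour at 4 °C with 10% biotinylated, detergent-solubilized Sf9 membrane reagent and enriched on streptavidin microbeads. FACS then separated cells into low and high (top ~1%) gates by anti-HA (expression) and streptavidin (reagent binding) fluorescence. Genes were colony-PCR amplified, MiSeq 2 × 250 sequenced and CDR-length filtered. A clone's polyreactivity label is that of its gate of origin.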

Row | Sequence | polyreactivity (PSR sort gate)
1 | QVQLVESGGGLVQAGGSLRLSCAASGSTFASNAMGWYRQAPGKERELVAAISGSGGRTYYADSVKGRFTISRDNAKNTVYLQMNSLKQEDTAVYYCAADWVRRYNYWGQGTQVTVSS | high polyreactivity
2 | QVQLVESGGGLVQAGGSLRLSCAASGSTFASNTMGWYRQAPGKERELVAAITQSGGTTYYAESVKGRFTISRDNAKNTVTLQMNSLKPEDTAVYYCATDVGYFYTVVGGYDYWGQGTQVTVSS | low polyreactivity
3 | QVQLVESGGGLVQAGGSLRLSCAASGSTFATYAMGWYRQAPGKERELVAAIRVSGGTTYADSVKGRFTISRDNAKNTVYLQMNSLKPEDNAVYYCAATGWEVYDIFDYWVQGTQVTVSS | low polyreactivity
4 | QVQLVESGGGLVQAGGSLRLSCAASGSTFATYTMGWYRQAPGKERELVAAISVSGSRTYYADSVKGRFTISRDNAKNTVYLQMNSLKPEDTAVYYCNADPPVKLYLYDYWGQGTQVTVSS | high polyreactivity
5 | QVQLVESGGGLVQAGGSLRLSCAASGSTFATYVMGWYRQAPGKETELVAAISSSGSTNYADSVKGRFTISRDNAKNTVYLQMNSLKPEYTAVYYCAARYYRLTDRPYNPIVSYGYWGQGTQVTVSS | high polyreactivity
6 | QVQLVESGGGLVQAGGSLRLSCAASGSTFAVYAMGWNRQAPGKERELVASITRGGSTYYADSVKGRFTISRDNAKYTVYLQMNSLKPEDTAVYYCADSITHYWYGYWGQGTQVTVSS | high polyreactivity
7 | QVQLVESGGGLVQAGGSLRLSCAASGSTFAWYAMGWYRQAPGKERELVAAISSGGRTYYADSVKGRFTISRDNAKNTVYLQMNSLKPEDTAVYYCNAVDWAYGMDYWGQGTQVTVSS | low polyreactivity
8 | QVQLVESGGGLVQAGGSLRLSCAASGSTFAWYTMGWYRQAPGKERELVASITSTGSTNYADSVKGRFTISRDNAKNTVYLQMNSLKPEDTAVYYCAAAVRAWYRRLYDYWGQGTQVTVSS | high polyreactivity
9 | QVQLVESGGGLVQAGGSLRLSCAASGSTFAYNAMGWYRQAPGKERELVAAITRSGGSTYYADSVKGRFTISRDNAKNTVYLQKNSLKPEDTAVYYCNKASGGYYVTSLYAYRYYYWGQGTQVTVSS | high polyreactivity
10 | QVQLVESGGGLVQAGGSLRLSCAASGSTFAYNDMGWYRQAPGKERELVADSRSGGNTNYADSVKGRFTISRDNAKNTVYLQMNSLKREDTAVYYCATDGYRIDVFHPDYRYDYWGHGTQVTVSS | low polyreactivity
11 | QVQLVESGGGLVQAGGSLRLSCAASGSTFAYNTMGWYRQAPGKERELVAAISQRGGSTYADSVKGRFTISRDNAKNTVYLQMNSLKPEVTAVYYCNKRNVYYSYPFDYDYWGQGTQVTVSS | low polyreactivity
12 | QVQLVESGGGLVQAGGSLRLSCAASGSTFAYYAMGWYRQAPGKEREFVAAISSRKDSTYADSVKGRFTLSRDNAKNTVYLQMNSLKPEDTAVYYCAKGPYYWSSSRVRYDYWGQGTQVTVSS | high polyreactivity
13 | QVQLVESGGGLVQAGGSLRLSCAASGSTFAYYAMGWYRQAPGKERELVAAISASGSRTYYADSVKGRFTISRDNAKNTVYLQMNSLKPEDTAVYYCAALQYRRKIPTAYAGDYWGQGTQVTVSS | high polyreactivity
14 | QVQLVESGGGLVQAGGSLRLSCAASGSTFAYYAMGWYRQAPGKERELVAAISYSGGITYYADSVKGRFTISRDNAKNTVYLQMNSLKPEDTAVYYCNKLFAQEFDYWGQGTQVTVSS | high polyreactivity
15 | QVQLVESGGGLVQAGGSLRLSCAASGSTFAYYAMGWYRQAPGKERELVAGISGSGGSTYYADSVKGRFTISRDNAKNTVYLQMNSLKPEVTAVYYCAVVQRSKRTYPWYDYWGQGTQVTVSS | low polyreactivity
16 | QVQLVESGGGLVQAGGSLRLSCAASGSTFAYYAMGWYRQAPGKERELVAVISVRVGSTYYADSVKGRFTISRDNAKNTVYLQMNSLNPEDTAVYYCATDFFYHSLSSRQDGDYWGQGTQVTVSS | high polyreactivity
17 | QVQLVESGGGLVQAGGSLRLSCAASGSTFAYYAMGWYRQAPGKEREMVAAISSGGSTYYADSVKGRFTISRDNAKNTVYLQMNSLKPEDTAVYYCNAEVPGHYFDGWYFYDFDYWGQGTQVTVSS | low polyreactivity
18 | QVQLVESGGGLVQAGGSLRLSCAASGSTFAYYAMVWYRQAPGKERELVAAISTIAGRTYYADSVKGRFTISRDNAKNTVYLQMNSLKPEDTAVYYCAVQFLYVVTLYSDYDYWGQGTQVTVSS | high polyreactivity
19 | QVQLVESGGGLVQAGGSLRLSCAASGSTFAYYMGWYRQAPGKERELVASISTYYADSVKGRFTISRDNAKNTVYLQMNSLKPEDTAVYYCNKAYYYVFTNYSTALAGDWGQGTQVTVSS | low polyreactivity
20 | QVQLVESGGGLVQAGGSLRLSCAASGSTFAYYTMGWYRQAPGKERELVAAITSGGRTSYADSVKGRFTISRDNAKNTVYLQMNSLKPEDTAVYYCAKGRKPGYYYWGQGTQVTVSS | high polyreactivity
21 | QVQLVESGGGLVQAGGSLRLSCAASGSTFAYYTMGWYRQAPGKERELVAAITSGGRTTYADSVKGRFTISRDNAKNTVYLQMNSLKPEDTAVYYCAKGRKPGYYYWGQGTQVTVSS | high polyreactivity
22 | QVQLVESGGGLVQAGGSLRLSCAASGSTFCDNAMGWYRQAPGNERELVAAISMSGGRTYYADSVKGRFTISRDNAKNTVYLQMNSLKPEDTAVYYCAAVGNRRYYFGYDYWGQGSQVTVSS | high polyreactivity

Row | Sequence | polyreactivity (PSR sort gate)
23 | QVQLVESGGGLVQAGGSLRLSCAASGSTFCDNSMGWYRQAPGKERELVAAITTSGTSTYYADSVKGRFTISRDNAKNTVYLQMNSLKPEDTAVYYCAAPYGVARFGDYLDDYDYWGQGTQVTVSS | low polyreactivity
24 | QVQLVESGGGLVQAGGSLRLSCAASGSTFCDYTMGVYRQAPGKERELLAAISRRGGITYYADSVKGRFTISRDNAKNTVYLQMNSLKPEDTAVYYCNKVYNPKSYIQYDYWGQGTQVTVSS | high polyreactivity
25 | QVQLVESGGGLVQAGGSLRLSCAASGSTFDAYAMGWYRQAPGKERELVAPISWSGGGTTYADSVKGRFTISRDNAKNTVYLLMNSLKPEDTAVYYCNAKGSVRDFQDTLRPEGDYWGQGTQVTVSS | low polyreactivity
26 | QVQLVESGGGLVQAGGSLRLSCAASGSTFDDNAMGWYRQAPGKERELVAVISSGGSTNYADSVKGRFTISRDNAKNTVYLQMNSLKPEDTAVYYCAAAKLTRRYRYGYWGQGTQVTVSS | high polyreactivity
27 | QVQLVESGGGLVQAGGSLRLSCAASGSTFDDNDMGWYRQAPGKERELVAAISWSGGSTTYADSVKGRFTISRDYAKNTVYLQMNSLKPEDTAVYYCAADWYYWGFIFDYWGQGTQVTVSS | high polyreactivity
28 | QVQLVESGGGLVQAGGSLRLSCAASGSTFDDYALGWYRQAPGKERELVAAISFSSGSTYYADSVKGRFTISRDNAKNTVYLQMNSLKPEDTAVYYCAAEKYGWTYYFSWQEDYWGQGTQVTVSS | high polyreactivity
29 | QVQLVESGGGLVQAGGSLRLSCAASGSTFDDYAMGWYRPAPGKERELVAAISSDGSTNYADSVKGRFTISRDNAKNTVYLQMNSLKPEDTAVYYCAAESPWDWGYWFEALYDYWGQGTQVNVSS | high polyreactivity
30 | QVQLVESGGGLVQAGGSLRLSCAASGSTFDDYAMGWYRQAPGKERELVAAISSSGGRTYYADSVKGRFTISRDNAKNTVYLQMNSLKPEDTAVYYCNADSYRSRGRYEFGRFDYWGQGTQVTVSS | high polyreactivity
31 | QVQLVESGGGLVQAGGSLRLSCAASGSTFDDYAMVWYRQAPGKDREFVAAISFSGDSTYYADSVKGRFTISRDNAKNTVYLQMNRLKPEDTAVYYCAAEVPAEENGYAYDYWGQGTQVTVSS | low polyreactivity
32 | QVQLVESGGGLVQAGGSLRLSCAASGSTFDENAMGWYRQAPGKERELVAGITTNGGSTSYADSVKGRFTISRDNAKNTVYLQMNSLKPEDTAVYYCAKGLYVQFDYWGQGSQVTVSS | low polyreactivity
33 | QVQLVESGGGLVQAGGSLRLSCAASGSTFDFNAMGWYRQAPWKEMELVADITRDGSTNYADSVKGRFTISRDNAKNTVYLQMNSLNPEDTAVYYCNAANRPGISGITTQGYYWGQGTQVTVSA | low polyreactivity
34 | QVQLVESGGGLVQAGGSLRLSCAASGSTFDFNVMGWYRQAPGKERELVAAISSGSSTYYADSVKGRFTISRDNAKNTVYLQMNSLKPEDTAVYYCARRYQLVRTRYYYWGQGTQVTVSS | high polyreactivity
35 | QVQLVESGGGLVQAGGSLRLSCAASGSTFDGYAMGWYRQAPGKERELVAAISYSGSSTYYADSVKGRFTISGDNAKNTVYLQMNSLKPEDTAVVYCAVDDTHPFGPDGGGDYWGQGTQVTVSS | low polyreactivity
36 | QVQLVESGGGLVQAGGSLRLSCAASGSTFDHNAMGWYRQAPGKEREFVAAISARGGITYYADSVKGRFTISRDNAKNTVYLQMNSLKPEDTAVYYCADVFGDYWSSQWSYAYGYWGLGTQVTVSS | high polyreactivity
37 | QVQLVESGGGLVQAGGSLRLSCAASGSTFDHNVMGWYRQAPGKERELVAAISGSGGSTYYADSVKGRFTISRDNAKNTVYLQMNSLKPEDTAVYYCAARYYVGHRGYYSWGQGTQVTVSS | high polyreactivity
38 | QVQLVESGGGLVQAGGSLRLSCAASGSTFDHYDMGWSIPAPGKERELVAAISYSGSTTVYADSVKGRFTISRDNAMNTVYLQMNSLKPEDTAVYYCAASGDVIQSPMDYWGQGTQVTVSS | low polyreactivity
39 | QVQLVESGGGLVQAGGSLRLSCAASGSTFDINAMGWYRQAPGKERELVAAITWRSGRTYYADSVKGRFTISRDNAKNNVYLQMNSLKPEDTAVYYCAADDTSYYIYSYDYWGQGTQVTVSS | low polyreactivity
40 | QVQLVESGGGLVQAGGSLRLSCAASGSTFDINVMGWYRQAPGKERELVAAITWSGGRTYYADSVKGRFTISRDNAKNTVYLQMNSLKPEDTAVYYCAARVGRGVYRYVPREFDYWGQGTQVTVSS | high polyreactivity
41 | QVQLVESGGGLVQAGGSLRLSCAASGSTFDIYAMGWYRQAPGKERELVAVISGGDGSTYYADSVKGRFTISRDNAKNTVYLQMNSLKPEDTAVYYCAADYISPGYCDGEYDCWGQGTQVTVSS | low polyreactivity
42 | QVQLVESGGGLVQAGGSLRLSCAASGSTFDIYAMGWYRQAPGKERKLVAVISGGDGSTYYADSVKGRFTISRDNAKNTVYLQMNSLKPEDTAVYYCEYDYWGQGTQVTVSS | low polyreactivity
43 | QVQLVESGGGLVQAGGSLRLSCAASGSTFDIYVMGWYRQAPGKERELVAAISRVGNTSYADSVKGRFTISRDNAKNTVYLQMNRLNPEDTAVYYCAADRADFFVIRTIDPYDYWGQGTQVTVSS | low polyreactivity
